Measured values: US20190119348A1, “PARATHYROID HORMONE RECEPTOR 1 ANTAGONIST AND INVERSE AGONIST POLYPEPTIDES AND METHODS OF THEIR USE” (The General Hospital Corporation, priority 2016, published 2019)
Positions count from the first letter of the chain named. Where a SMILES comes first, the peptide text is derived from it. Where no end group is shown, it is not given here. [ ]: non-standard residue; d: D form. Nle = CCCC[C@H](N)C(=O)O

How the values were obtained:
endogenous hPTHR1 = target: T1, endogenous hPTHR1 (Homo sapiens, UniProt Q03431); test: Antagonism of PTH(1-34)- and PTHrP(1-36)-induced cAMP response (GloSensor) in SGS-72 cells; type: cell-based; settings: IC50 PTH(1-34) (Table 6, nanomolar value), antagonist pre-treatment 15 minutes, PTH(1-34) 0.3 nM
T1 construct: Saos-2, in which is endogenously expressed the hPTHR1; endogenous in cells
T1 sequence (Q03431 27-593): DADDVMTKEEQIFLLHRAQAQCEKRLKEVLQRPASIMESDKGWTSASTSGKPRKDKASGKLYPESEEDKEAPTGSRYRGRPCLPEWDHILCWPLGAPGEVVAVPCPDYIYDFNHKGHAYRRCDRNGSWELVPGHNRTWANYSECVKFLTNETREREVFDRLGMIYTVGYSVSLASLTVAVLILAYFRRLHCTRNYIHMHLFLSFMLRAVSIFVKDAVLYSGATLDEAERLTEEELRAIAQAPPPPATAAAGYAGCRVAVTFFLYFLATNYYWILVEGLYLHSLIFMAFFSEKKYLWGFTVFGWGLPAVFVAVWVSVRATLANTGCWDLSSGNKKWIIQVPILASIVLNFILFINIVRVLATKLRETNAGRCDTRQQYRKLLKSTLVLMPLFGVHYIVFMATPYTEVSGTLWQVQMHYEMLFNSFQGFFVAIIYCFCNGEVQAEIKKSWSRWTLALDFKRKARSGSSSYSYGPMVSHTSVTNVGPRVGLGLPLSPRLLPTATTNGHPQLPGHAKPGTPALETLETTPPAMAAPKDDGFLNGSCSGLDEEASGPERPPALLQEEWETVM
Experimental: cAMP signaling was assessed in the HEK293-derived or SaOS2-derived cell lines stably expressing the luciferase-based GloSensorTM cAMP reporter ([…] al., Paper presented at: Novel Signaling Mechanisms and Bone Cell Biology 2014; Binkowski et al., Methods in molecular biology. 756:263-271). HEK-293 cells were further transfected to stably express the hPTHR1, hPTHR1-H223R, or hPTHR1-T410P. The cells were seeded into 96-well white plates and were assayed 24 to 48 hours post-confluency. Assays were performed at room temperature in CO2-independent culture media (Life Technologies, Corp., Carlsbad, Calif.) containing 0.1% BSA (CIDB). The cells were pre-loaded with luciferin (0.5 mM in CIDB) for 15 minutes, then PTH peptides were added at varying concentrations. cAMP-dependent luminescence was measured at two-minute intervals using a PerkinElmer Envision plate reader. The time at which maximum luminescence (cps) observed with agonist alone, typically at 10-20 minutes after agonist addition, was used to obtain data from wells containing antagonist with or without agonist, to thus generate antagonist ligand dose-response curves. The resulting cps values were then plotted against ligand concentration using GraphPad Prism 7.0 software and a four-parameter logistics curve fitting equation, which yielded parameters of inhibitory potency (pIC50). Pharmacological properties of the ligands were assessed in cells expressing the PTHR1 and the GloSensorTM cAMP reporter. The assays used GP-2.3 cells, derived from HEK293 cells by stable transfection with the hPTHR1 and GloSensorTM, as well as SGS-72 cells, which are derived from the human osteosarcoma cell line, Saos-2, in which is endogenously expressed the hPTHR1, by stable transfection with GloSensorTM. Binding of representative polypeptides to the PTHR1 was assessed in GP-2.3 cells by radioligand competition methods (FIGS. 1A and 1B, Table 3). […] In Table 5, antagonist assays were performed in SGS-72 cells (SaOS2 cells with stable GloSensorTM cAMP reporter) at room temperature. […] The mean (±sem) concentration of antagonist that inhibited the maximum agonist-induced response observed in the absence of antagonist (at 40 minutes) is reported in units of -log M (pIC50), and the corresponding nanomolar value is shown below each pIC50 value. Data are means of the number of seven experiments. The PTH(1-34)-induced maximum luminescence was 500,000 cps and the basal was 5,000 cps. TMR indicates Lys13 modified at epsilon amino function with TMR. The data are illustrated in FIG. 7A. […] Date are means (±SEM) of the number of separate experiments indicated by n.

hPTHR1-H223R (human) = hPTHR1-H223R (human) (UniProt Q03431); test: cell-based or functional assay
[1] = target: human parathyroid hormone receptor 1 (hPTHR1) (human) (UniProt Q03431); test: cell-based or functional assay
human PTHR1-H223R = target: T2, human PTHR1-H223R (Homo sapiens, UniProt Q03431, H223R); test: Inverse agonism on basal cAMP signaling in GHR-10 cells; type: cell-based; settings: GHR-10 cells, from AUC, representative experiment
T2 construct: expressed in transfected cells; host or cells: GHR-10 (HEK-293 stably expressing GloSensor and PTHR1-H223R)
T2 sequence (Q03431 27-593 H223R): T1 sequence (Q03431 27-593) with H197R
Experimental: cAMP signaling was assessed in the HEK293-derived or SaOS2-derived cell lines stably expressing the luciferase-based GloSensor™ cAMP reporter (Hattersley et al., Paper presented at: Novel Signaling Mechanisms and Bone Cell Biology 2014; Binkowski et al., Methods in molecular biology. 756:263-271). HEK-293 cells were further transfected to stably express the hPTHR1, hPTHR1-H223R, or hPTHR1-T410P. The cells were seeded into 96-well white plates and were assayed 24 to 48 hours post-confluency. Assays were performed at room temperature in CO2-independent culture media (Life Technologies, Corp., Carlsbad, Calif.) containing 0.1% BSA (CIDB). The cells were pre-loaded with luciferin (0.5 mM in CIDB) for 15 minutes, then PTH peptides were added at varying concentrations. cAMP-dependent luminescence was measured at two-minute intervals using a PerkinElmer Envision plate reader. The time at which maximum luminescence (cps) observed with agonist alone, typically at 10-20 minutes after agonist addition, was used to obtain data from wells containing antagonist with or without agonist, to thus generate antagonist ligand dose-response curves. The resulting cps values were then plotted against ligand concentration using GraphPad Prism 7.0 software and a four-parameter logistics curve fitting equation, which yielded parameters of inhibitory potency (pIC50).
These experiments were performed in HEK-293 cells stably transfected to express the GloSensor™ cAMP reporter along with a constitutively active mutant human PTHR1. The HEK-293 cells stably expressing GloSensor™ cAMP reporter along with a constitutively active mutant human PTHR1-H223R are GHR-10 cells. The HEK-293 cells stably expressing GloSensor™ cAMP reporter along with a constitutively active mutant human PTHR1-T410P are GTP-4 cells. The HEK-293 cells stably expressing GloSensor™ cAMP reporter along with a WT-PTHR1 are GP-2.3 cells. GP-2.3 cells were used as control. […] Effects on basal cAMP signaling over time were assessed during periods of direct ligand addition (FIGS. 15A-15F). The measurements were performed by recording GloSensor™ luminescence as counts per second (cps) using a PerkinElmer Envision plate reader. The data are illustrated in FIGS. 15A-15F. Data are from triplicate wells (means±SEM) of a single experiment representative of two others.
Persistence of the antagonist/inverse agonist effects (prolonged action) as follows. Effects of eight peptides on basal and PTH(1-34)-stimulated cAMP signaling by PTHR-H223R were assessed in GHR-10 cells (HEK-293-derived cells stably expressing glosensor cAMP reporter and PTHR1-H223R). Time courses of changes in cAMP levels were recorded in three consecutive phases:
1) after initial addition of a candidate antagonist/inverse agonist (1×10^−6 M-1×10^−9 M) to cells pre-loaded for […] with luciferin (left column);
2) after removal of unbound inverse agonist by extensive wash-out with buffer and replenishment with fresh luciferin-containing buffer (middle column); and
Control wells were treated with vehicle. GloSensor™ luminescence, as counts per second (cps), was recorded using a PerkinElmer Envision plate reader. Data are from duplicate wells (means±SEM) of a single experiment representative of two others. The results are illustrated in Table 7 and in FIGS. 16A-16C, 17A-17C, 18A-18C, 19A-19C, 20A-20C, 21A-21C, 22A-22C, and 23A-23C.
GHR10 cells were treated with vehicle or vehicle containing the indicated peptide for 24 minutes and cAMP-dependent luminescence was recorded at two-minute intervals. The cells were then washed to remove unbound ligand and media containing fresh luciferin was added, and cAMP luminescence was recorded for another 26 minutes. Percentage reduction was calculated from the area-under-the-curve (AUC) values derived from the time course plots using the equation: […]

`CCCC[C@H](NC(=O)[C@H](CC(C)C)NC(=O)[C@H](CCC(N)=O)NC(=O)[C@@H](N)[C@@H](C)CC)C(=O)N[C@@H](Cc1c[nH]cn1)C(=O)N[C@@H](CCC(N)=O)C(=O)N[C@@H](CCCNC(=N)N)C(=O)N[C@H](Cc1c[nH]c2ccccc12)C(=O)N[C@@H](CCCCN)C(=O)N[C@@H](Cc1c[nH]c2ccccc12)C(=O)N[C@H](C(=O)N[C@@H](CCC(N)=O)C(=O)N[C@@H](CC(=O)O)C(=O)N[C@@H](C)C(=O)N[C@@H](CCCNC(=N)N)C(=O)N[C@@H](CCCNC(=N)N)C(=O)N[C@@H](CCCNC(=N)N)C(=O)N[C@@H](C)C(=O)N[C@@H](Cc1c[nH]c2ccccc12)C(=O)N[C@@H](CC(C)C)C(=O)N[C@@H](Cc1c[nH]cn1)C(=O)N[C@@H](CCCCN)C(=O)N[C@@H](CC(C)C)C(=O)N[C@H](C(=O)N[C@@H](C)C(=O)N[C@@H](CCC(=O)O)C(=O)N[C@H](C(=O)N[C@@H](Cc1c[nH]cn1)C(=O)N[C@H](C(=O)N[C@@H](C)C(=O)N[C@@H](CCC(=O)O)C(=O)N[C@@H](Cc1ccc(O)cc1)C(N)=O)[C@@H](C)O)[C@@H](C)CC)[C@@H](C)CC)[C@@H](C)CC` [compound 1954, Nle8, dW12, W23, Y36-LA-PTH(5-36)] (H-IQL[Nle]HQR[dW]KWIQDARRRAWLHKLIAEIHTAEY-NH2; N-terminus assumed) showed an IC50 (endogenous hPTHR1) of 1.75 nM.
“L11, dW12, W23-LA-PTH(5-36)-2003 (peptide)” was tested, and the Reduction of basal cAMP, % vehicle; After ligand washout; GHR-10 cells (hPTHR1-H223R (human)) was 64 % vehicle, the Reduction of basal cAMP, % vehicle; Ligand @ -6M; GHR-10 cells (hPTHR1-H223R (human)) was 66 % vehicle and the IC50, antagonism of PTH(1-34) (0.3 nM)-induced cAMP response, SGS-72 cells [1] was 2.57 nM. The pIC50, antagonism of PTH(1-34) (0.3 nM)-induced cAMP response, SGS-72 cells [1] was 8.59 -log M.
“L11, dW12, W23-LA-PTH(7-36)-2001 (peptide)” gave a Reduction of basal cAMP, % vehicle; After ligand washout; GHR-10 cells (hPTHR1-H223R (human)) of 65 % vehicle, a Reduction of basal cAMP, % vehicle; Ligand @ -6M; GHR-10 cells (hPTHR1-H223R (human)) of 66 % vehicle and an IC50, antagonism of PTH(1-34) (0.3 nM)-induced cAMP response, SGS-72 cells [1] of 2.08 nM. For the same molecule, the pIC50, antagonism of PTH(1-34) (0.3 nM)-induced cAMP response, SGS-72 cells [1] was 8.68 -log M.
“LA-PTH(5-36)-2012 (IQLMHQRAKWIQDARRRAFLHKLIAEIHTAEI-NH2) [compound 2012]” was tested, and the “Reduction of basal cAMP, % vehicle, After ligand washout” value (human PTHR1-H223R; 26 minutes after washout of unbound ligand) was −49 % vehicle and the “Reduction of basal cAMP, % vehicle, Ligand @ −6M” value (human PTHR1-H223R; peptide 1×10^−6 M for 24 minutes) was −15 % vehicle.
With “Nle8, L11, dW12, W23-LA-PTH(5-36)-1999 (peptide)” the Reduction of basal cAMP, % vehicle; After ligand washout; GHR-10 cells (hPTHR1-H223R (human)) was 62 % vehicle, the Reduction of basal cAMP, % vehicle; Ligand @ -6M; GHR-10 cells (hPTHR1-H223R (human)) was 63 % vehicle and the IC50, antagonism of PTH(1-34) (0.3 nM)-induced cAMP response, SGS-72 cells [1] was 2.75 nM. The pIC50, antagonism of PTH(1-34) (0.3 nM)-induced cAMP response, SGS-72 cells [1] was 8.56 -log M.
“Nle8, L11, dW12, W23-LA-PTH(7-36)-1997 (peptide)” showed a Reduction of basal cAMP, % vehicle; After ligand washout; GHR-10 cells (hPTHR1-H223R (human)) of 71 % vehicle, a Reduction of basal cAMP, % vehicle; Ligand @ -6M; GHR-10 cells (hPTHR1-H223R (human)) of 70 % vehicle and an IC50, antagonism of PTH(1-34) (0.3 nM)-induced cAMP response, SGS-72 cells [1] of 2.1 nM. The pIC50, antagonism of PTH(1-34) (0.3 nM)-induced cAMP response, SGS-72 cells [1] was 8.68 -log M.
Molecule “Nle8, dW12, W23-LA-PTH(7-36)-1992 (peptide)” has a Reduction of basal cAMP, % vehicle; After ligand washout; GHR-10 cells (hPTHR1-H223R (human)) of 40 % vehicle, a Reduction of basal cAMP, % vehicle; Ligand @ -6M; GHR-10 cells (hPTHR1-H223R (human)) of 51 % vehicle and an IC50, antagonism of PTH(1-34) (0.3 nM)-induced cAMP response, SGS-72 cells [1] of 1.55 nM. The pIC50, antagonism of PTH(1-34) (0.3 nM)-induced cAMP response, SGS-72 cells [1] was 8.81 -log M.
For dW12, W23-LA-PTH(7-36)-1990 (peptide), the Reduction of basal cAMP, % vehicle; After ligand washout; GHR-10 cells (hPTHR1-H223R (human)) was 39 % vehicle, the Reduction of basal cAMP, % vehicle; Ligand @ -6M; GHR-10 cells (hPTHR1-H223R (human)) was 50 % vehicle and the IC50, antagonism of PTH(1-34) (0.3 nM)-induced cAMP response, SGS-72 cells [1] was 1.23 nM. The pIC50, antagonism of PTH(1-34) (0.3 nM)-induced cAMP response, SGS-72 cells [1] was 8.91 -log M.
